Test results published in patent US20050129678A1 (published 2005).

T1: GST-Yil033C (yeast, UniProt P07278 1-416)
T1 construct: also called Yil033C-Bcy1; Yil033C-Bcyl; not shown: glutathione S-transferase (GST) fusion tag
T1 sequence (looked up): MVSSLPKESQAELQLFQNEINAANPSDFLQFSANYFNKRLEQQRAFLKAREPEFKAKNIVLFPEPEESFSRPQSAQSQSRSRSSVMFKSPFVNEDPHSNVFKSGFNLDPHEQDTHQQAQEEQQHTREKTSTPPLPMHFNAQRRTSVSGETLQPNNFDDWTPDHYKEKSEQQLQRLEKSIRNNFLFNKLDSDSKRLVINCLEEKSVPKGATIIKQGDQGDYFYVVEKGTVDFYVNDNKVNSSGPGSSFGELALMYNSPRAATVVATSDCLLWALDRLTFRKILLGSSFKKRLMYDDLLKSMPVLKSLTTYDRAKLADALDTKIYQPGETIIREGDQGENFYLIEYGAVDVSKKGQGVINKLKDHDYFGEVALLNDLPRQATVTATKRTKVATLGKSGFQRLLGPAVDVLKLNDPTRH

B1: GST-Ykl166C (enzyme, UniProt P05986 1-398, looked up)
chain: MYVDPMNNNEIRKLSITAKTETTPDNVGQDIPVNAHSVHEECSSNTPVEINGRNSGKLKEEASAGICLVKKPMLQYRDTSGKYSLSDFQILRTLGTGSFGRVHLIRSNHNGRFYALKTLKKHTIVKLKQVEHTNDERRMLSIVSHPFIIRMWGTFQDSQQVFMVMDYIEGGELFSLLRKSQRFPNPVAKFYAAEVCLALEYLHSKDIIYRDLKPENILLDKNGHIKITDFGFAKYVPDVTYTLCGTPDYIAPEVVSTKPYNKSVDWWSFGVLIYEMLAGYTPFYNSNTMKTYENILNAELKFPPFFHPDAQDLLKKLITRDLSERLGNLQNGSEDVKNHPWFNEVIWEKLLARYIETPYEPPIQQGQGDTSQFDRYPEEEFNYGIQGEDPYMDLMKEF
notes: also called Ykl166C-Tpk3; Tpk3; not shown: glutathione S-transferase (GST) fusion tag
B2: GST-Ypl203W (enzyme, UniProt P06245 1-380, looked up)
chain: MEFVAERAQPVGQTIQQQNVNTYGQGVLQPHHDLQQRQQQQQQRQHQQLLTSQLPQKSLVSKGKYTLHDFQIMRTLGTGSFGRVHLVRSVHNGRYYAIKVLKKQQVVKMKQVEHTNDERRMLKLVEHPFLIRMWGTFQDARNIFMVMDYIEGGELFSLLRKSQRFPNPVAKFYAAEVILALEYLHAHNIIYRDLKPENILLDRNGHIKITDFGFAKEVQTVTWTLCGTPDYIAPEVITTKPYNKSVDWWSLGVLIYEMLAGYTPFYDTTPMKTYEKILQGKVVYPPYFHPDVVDLLSKLITADLTRRIGNLQSGSRDIKAHPWFSEVVWERLLAKDIETPYEPPITSGIGDTSLFDQYPEEQLDYGIQGDDPYAEYFQDF
notes: also called Ypl203W-Tpk2; Yp1203W; not shown: glutathione S-transferase (GST) fusion tag
B3: GST-Yjl164C-Tpk1 (enzyme, UniProt P06244 1-397, looked up)
chain: MSTEEQNGGGQKSLDDRQGEESQKGETSERETTATESGNESKSVEKEGGETQEKPKQPHVTYYNEEQYKQFIAQARVTSGKYSLQDFQILRTLGTGSFGRVHLIRSRHNGRYYAMKVLKKEIVVRLKQVEHTNDERLMLSIVTHPFIIRMWGTFQDAQQIFMIMDYIEGGELFSLLRKSQRFPNPVAKFYAAEVCLALEYLHSKDIIYRDLKPENILLDKNGHIKITDFGFAKYVPDVTYTLCGTPDYIAPEVVSTKPYNKSIDWWSFGILIYEMLAGYTPFYDSNTMKTYEKILNAELRFPPFFNEDVKDLLSRLITRDLSQRLGNLQNGTEDVKNHPWFKEVVWEKLLSRNIETPYEPPIQQGQGDTSQFDKYPEEDINYGVQGEDPYADLFRDF
notes: not shown: glutathione S-transferase (GST) fusion tag
B4: endogenous Tpk1 (enzyme, yeast, UniProt P06244 2-397, looked up)
chain: STEEQNGGGQKSLDDRQGEESQKGETSERETTATESGNESKSVEKEGGETQEKPKQPHVTYYNEEQYKQFIAQARVTSGKYSLQDFQILRTLGTGSFGRVHLIRSRHNGRYYAMKVLKKEIVVRLKQVEHTNDERLMLSIVTHPFIIRMWGTFQDAQQIFMIMDYIEGGELFSLLRKSQRFPNPVAKFYAAEVCLALEYLHSKDIIYRDLKPENILLDKNGHIKITDFGFAKYVPDVTYTLCGTPDYIAPEVVSTKPYNKSIDWWSFGILIYEMLAGYTPFYDSNTMKTYEKILNAELRFPPFFNEDVKDLLSRLITRDLSQRLGNLQNGTEDVKNHPWFKEVVWEKLLSRNIETPYEPPIQQGQGDTSQFDKYPEEDINYGVQGEDPYADLFRDF
notes: Untagged yeast Tpk1 found in a GST fusion preparation; also called Tpk1wt; a protein with the same molecular weight as Tpk1

Legend:
GST-Yil033C = target: T1, GST-Yil033C; test: microarray-based protein-protein interaction
endogenous Tpk1 = target: B4; test: co-purification with the GST fusion, Western blot with anti-Tpk1
Source text: (§1) Tpk1 is a protein kinase involved in pseudohyphal growth and ras signal transduction (Robertson et al., 1998, Pro Natl Acad Sci USA 95, 13783-7; Tokiwa et al., 1994, Nature 371, 342-5). […] Three of these proteins, Ykl166C-Tpk3 (a protein kinase), Ypl203W-Tpk2 (a protein kinase) and Yil033C-Bcyl (a cAMP-dependent protein kinase inhibitor) have been shown by mass spectroscopy to be co-immunoprecipitated with Tpk1 (Ho et al., 2002, Nature 415, 180-3).
(§2) SDS-PAGE and Western analyses of Protein Samples. Purified proteins were mixed with sample buffer, heated and run in 5%/10% SDS-PAGE gels, transferred to nitrocellulose and blocked overnight with 1% BSA in TBST. Subsequently, blots were probed with primary antibodies for 2 hours, washed three times with TBST, probed with secondary antibodies conjugated to HRP for 1 hour and washed three times with TBST. Femto-reagent (Pierce Co., Milwaukee) was added and images acquired with an Alpha Innotech Imaging station.

GST-Ykl166C [1] = target: B1; test: microarray-based protein interaction experiment
GST-Ykl166C [2] = target: B1; test: co-purification with the GST fusion, Western blot with anti-Tpk1
Source text: as §1, §2

binding result (GST-Yil033C)	binding result (endogenous Tpk1)	binding result (GST-Ykl166C [1])	binding result (GST-Ykl166C [2])	Binder
binds				B1
binds	no binding			B2
binds		no binding		B3
			no binding	B4
